# Data published in PMC8260656.
# B1: ERG recombinant protein (Origene, TP308093) (natural protein)
# chain: MASTIKEALSVVSEDQSLFECAYGTPHLAKTEMTASSSSDYGQTSKMSPRVPQQDWLSQPPARVTIKMECNPSQVNGSRNSPDECSVAKGGKMVGSPDTVGMNYGSYMEEKHMPPPNMTTNERRVIVPADPTLWSTDHVRQWLEWAVKEYGLPDVNILLFQNIDGKELCKMTKDDFQRLTPSYNADILLSHLHYLRETPLPHLTSDDVDKALQNSPRLMHARNTGGAAFIFPNTSVYPEATQRITTRPDLPYEPPRRSAWTGHGHPTPQSKAAQPSPSTVPKTEDQRPQLDPYQILGPTSSRLANPGSGQIQLWQFLLELLSDSSNSSCITWEGTNGEFKMTDPDEVARRWGERKSKPNMNYDKLSRALRYYYDKNIMTKVHGKRYAYKFDFHGIAQALQPHPPESSLYKYPSDLPYMGSYHAHPQKMNFVAPHPPALPVTSSSFFAAPNPYWNSPTGGIYPNTRLPTSHMPSHLGTYY
# Biological target: EZH2 recombinant protein His-tagged (Epigentek, E24031-1) (human) (UniProt Q15910)
# Test: MST; labeled His-tagged EZH2 at 5 nM fixed; ERG from 0.4uM to 2.44E-05uM; incubated at room temperature for 5 min; Monolith NT.115, Premium capillaries, 30% LED excitation, high MST power
binder,measurement,value
B1,Kd,0.29 µM
